Test results published in patent US20080131373A1 (VAN ANDEL RESEARCH INSTITUTE, published 2008).

B1: Fab-paclitaxel conjugate (anti-EGFR Fab conjugated to paclitaxel) (Fab, V domains shown)
VH: EVQLVESGGGLVQPGRSLRLSCAASGFTFDDYAMHWVRQAPGKGLEWVAVIWYDGSNKYYADSVKGRFTISRDNSKNTLYLQMNSLRAEDTAVYYCARTLYSNIDYWGQGTLVTVSS
VL: ALTQPPSVSVAPGKTARITCGGNNIGSKSVHWYQQKPGQAPVLVIYYDSDRPSGIPERFSGSNSGNTATLTISRVEAGDEADYYCQVWDSSSDHPVFGGGTKLTVL
modifications: paclitaxel conjugated to the Fab; chain, site and linker not stated
B2: anti-EGFR Fab fragment (produced by E. coli deposited as ATCC PTA-7830) (Fab, V domains shown)
VH: B1 VH
VL: B1 VL
notes: Human Fab from a naive phage display library (phagemid pComb3X), expressed in E. coli Top 10 F' and purified from the periplasm; also called the Fab of the present invention

Experiments:
[1] = target: human epidermal growth factor receptor (EGFR) on the surface of A431 cells (human, UniProt P00533 25-1210); experiment: cell-based or functional assay
[2] = target: T1, full length EGFR protein from A431 cell lysate (affinity purified, or native in the lysate) (human, UniProt P00533 25-1210); experiment: non-competitive ELISA on immobilized EGFR at 2 and 5 µg/ml coating
T1 construct: mature; 'mature' is chosen as the nearest form; also called intact EGFR protein; native EGFR
Method: The hyperbolic curves were plotted by Graphpad Prism (FIG. 7). […] The affinity was calculated as an association constant (Kaff) as follows: […]
The affinity of the Fab was calculated by non-competitive ELISA as described elsewhere (Raghava G P, et al. J Immunoassay 15:115-28 (1994)). The EGFR proteins were immobilized to an ELISA plate at two different concentrations: 2 μg/ml and 5 μg/ml. After the plate was blocked by 5% milk-PBS, the serially diluted Fab was added to each well. The concentration of Fab and the absorbance optical at 450 nm were plotted in two hyperbolic curves and each Kd was calculated by Graphpad Prism Demo Version.

| Binder | IC50 of A431 cell proliferation [1] | Ka [2] | Kd [2] |
| --- | --- | --- | --- |
| B1 | 0.02 nM |  |  |
| B2 |  | 3.25e+07 M⁻¹ | 30.7 nM |
